Assay results from PMC6731152 (Molecular cell, 2019).

Columns and labels:
[1] = molecular target: the molecule itself; test: cryo-EM structure
[2] = molecular target: the molecule itself; test: SEC

Protein | stoichiometry N [1] | binding result [2]
^coreAFG3L2^WB/PI (human AFG3L2 catalytic core, residues 272-797, E408Q/E575Q) (domain or fragment) not shown | 6 | 
^coreAFG3L2^WB/PI/Δ781−797 (domain or fragment) not shown |  | binds
